Data taken from the DeepSol protein solubility set.

Test: soluble on expression in E. coli; label from the status in PepcDB or PDB records

Sequence | soluble on expression in E. coli
MGSDKIHHHHHHMSYLLRKPQSHEVSNGVKLVHEVTTSNSDLTYVEFKVLDLASGSSYTEELKKQEICIVAVTGKITVTDHESTFENIGTRESYFERKPTDSVYISNDRAFEITAVSDARVALCYSPSEKQLPTKLIKAEDNGIEHRGQFSNKRTVHNILPDSDPSANSLLVVEVYTDSGNWSSYPPHKHDQDNLPEESFLEETYYHELDPGQGFVFQRVYTDDRSIDETMTVGNENVVIVPAGYHPVGVPDGYTSYYLNVMAGPTRKWKFYNDPAHEWILER | not soluble
MRQKLGNTDQAADLVQDTFIKLLQTRDELFGIKEPRAYLTSIAKNLLIDQVRRKRIEQAYLDGLSQMKYMLDAVASPEDQMQIIQAINQLCKALEGVSEKAQQAFILHYLEGYTHKEIAERLNVSTKMIQKYLASCLIQCYQNRQDMDACI | not soluble
MATLFIADLHLQTEEPAITAGFLRFLQGEARQADALYILGDLFEAWIGDDDPNPLHQQIASAIKAVVDAGVPCYFIHGNRDFLVGQRFARQSGMILLAEEERLDLYGREVLIMHGDTLCTDDQGYLAFRAKVHTPWIQRLFLALPLFIRHRIAARMRADSKAANSSKSMEIMDVNPQAVVDAMERHHVQWLIHGHTHRPAVHELQANGQPAWRVVLGAWHSEGSMVKVTPDDVELIHFPF | not soluble
MNSTQSRRVGLYGTGRAAAQLVGAIEASPHTLTTAIVFFDEQAGQDIGTLTGGRATGITATTDLEGAIRSGDFDVLAYAGLKGEVLHRAMELCADSGVDLVHACFVHPRVKLDPEMYSRLQKRAEETGARIVGTGMLPGFWLDVLPALLSSALPAPVSIIGESRSDITAWGRGVLADEMGLGTLADGQPGPVGGVLHESAEMIADILGLTGYESKVYGGYVTAHAATEVAGIQISPGDRVGFDEAATVVHDGRERVRIAWKGLPKGSFEGYERSLTVTAIGGDGSECTLSITPALDPYPGTAARIVHAVGALGALPGGQHTPVQLGI | not soluble
MAAKPKLYYFNGRGRMESIRWLLAAAGVEFEEEFLETREQYEKMQKDGHLLFGQVPLVEIDGMMLTQTRAILSYLAAKYNLYGKDLKERVRIDMYADGTQDLMMMIAVAPFKTPKEKEESYDLILSRAKTRYFPVFEKILKDHGEAFLVGNQLSWADIQLLEAILMVEELSAPVLSDFPLLQAFKTRISNIPTIKKFLQPGSQRKPPPDGPYVEVVRIVLKF | soluble
MFRKLGSSGSLWKPKNPHSLEYLKYLQGVLTKNEKVTENNKKILVEALRAIAEILIWGDQNDASVFDFFLERQMLLYFLKIMEQGNTPLNVQLLQTLNILFENIRHETSLYFLLSNNHVNSIISHKFDLQNDEIMAYYISFLKTLSFKLNPATIHFFFNETTEEFPLLVEVLKLYNWNESMVRIAVRNILLNIVRVQDDSMIIFAIKHTKEYLSELIDSLVGLSLEMDTFVRSAENVLANRERLRGKVDDLIDLIHYIGELLDVEAVAESLSILVTTRYLSPLLLSSISPRRDNHSLLLTPISALFFFSEFLLIVRHHETIYTFLSSFLFDTQNTLTTHWIRHNEKYCLEPITLSSPTGEYVNEDHVFFDFLLEAFDSSQADDSKAFYGLMLIYSMFQNNADVGELLSAANFPVLKESTTTSLAQQNLARLRIASTSSISKRTRAITEIGVEATEEDEIFHDVPEEQTLEDLVDDVLVDTENSAISDPEPKNVESESRSRFQSAVDELPPPSTSGCDGRLFDALSSIIKAVGTDDNRIRPITLELACLVIRQILMTVDDEKVHTSLTKLCFEVRLKLLSSIGQYVNGENLFLEWFEDEYAEFEVNHVNFDIIGHEMLLPPAATPLSNLLLHKRLPSGFEERIRTQIVFYLHIRKLERDLTGEGDTELPVRVLNSDQEPVAIGDCINLHNSDLLSCTVVPQQLCSLGKPGDRLARFLVTDRLQLILVEPDSRKAGWAIVRFVGLLQDTTINGDSTDSKVLHVVVEGQPSRIKKRHPVLTAKFIFDDHIRCMAAKQRLTKGRQTARGLKLQAICSALGVPRIDPATMTSSPRMNPFRIVKGCAPGSVRKTVSTSSSSSQGRPGHYSANLRSASRNAGMIPDDPTQPSSSSERRS | not soluble
GSHMNQCPEHSQLTTLGVDGKEFPEVHLGQWYFIAGAAPTKEELATFDPVDNIVFNMAAGSAPMQLHLRATIRMKDGLCVPRKWIYHLTEGSTDLRTEGRPDMKTELFSSSCPGGIMLNETGQGYQRFLLYNRSPHPPEKCVEEFKSLTSCLDSKAFLLTPRNQEACELSNN | soluble
MSLDSNSQSRSSSASSIGSESETGNAVVVFGYREAITKQILAYFAQFGEILEDLESELGDTETMRTPGYFFQQAPNRRRISREHGRTWTKLTYANHSSYLRALREHGTIYCGAAIGCVPYKHELISELSRDTYNSMNDVKQTNSISTNQLTQHNQSEVPKSNQTFETKPTNETERNQIKTPSAFGSDNKGNGSISSGRTKRRLSIKDGSSLFLSGTDNIFSTLDGQPTKKRMINRDRSLIGKISGWLFGWNDLEGHHHHHH | soluble
MAHHHHHHMCLDWKYNYMKTRLKVLENNEKDEEIERKLQNNLNIKSLGYVLKAIEILKRKEKMKRYSTFDRHLSYFKKNNINKPQYNEKKILEHRLWAIGCELIEVIGDGNCLFRSISRNLFHKQKYHMYVRKKCVEYMINYKEEYSIYFENNEFQQYIKNMSKNGYWGDELCIKATADAFDCIIYIITSTLENWHLKYESKNNNGMYKKCVFLAYSSPTHYDCFKLMQR | not soluble
MGSDKIHHHHHHMSKIVALYNNKGGVSKTTTNFNLGVYLSQQGKRVLMVDCDPQCNLTELFFASRDDLEEPDVQLPGTSIYDALLPRFKGHQGRIEQSGIEVSEHSLYSSLFLFRGDLEFSRAETYLGTSWSQAVTENIHEKNTYIVFNKLMKDIGSARGYDYILCDVGPSTGAITKTVIISCDEIVIPLVPDRFCYQAVKLLGSVISEWIENHKIISDSLVPFGIEPFEGNPKLAGTVLQNFKVHAGSKVKESYIKWQKKITEEIQSSLCKENGFSPKVGFNIEEPYTASIKDVAVLAPVAQLFGRAIFDIEQEHTKEASSNGQMYYGTVWQPWLDRMSEYKEEIAKIAEAIS | not soluble
MQAFEPYIALNSHVRKPVIHISLNPSPKDILSKEQMTVLAQEFMEKFGYGNQPYIVWLHEDIDRKHMHIISVRINEKGEKIDHNREAIRAQNICRDMEVKYGLHSTLGEHSERELLSLQKVDYPKGDVKAQVKHTARTLLECYNCHSLAEYNTLLNLYNVTVYEVRGSVDGKEYYGIMYGALDDDGQQAGTPFKSSKFGKVFGYEALQKKFAATAEKVKRNSLAERARQEIVKAMQDISTKEAFARRLKDADIEVVYRINPEGRLYGITFIDHTNRTVFNGSRLGKAFSANVFNELFNNPDADRTKLIPPPEQDTPRQARETDAEERQEREEYRQQENRGNYQSEPSGSLIDTSALGAIDIFSVLMEDDHTHEYIDPAFRFGHKKKKKRRRRLLEHHHHHH | soluble
AKKIGLFYGTQTGKTESVAEIIRDEFGNDVVTLHDVSQAEVTDLNDYQYLIIGCPTENIGELQSDWEGLYSELDDVDFNGKLVAYFGTGDQIGYADNFQDAIGILEEKISQRGGKTVGYWSTDGYDFNDSKALRNGKFVGLALDEDNQSDLTDDRIKSWVAQLKSEFGL | soluble
MAEKKLEENPYDLDAWSILIREAQNQPIDKARKTYERLVAQFPSSGRFWKLYIEAEIKAKNYDKVEKLFQRCLMKVLHIDLWKCYLSYVRETKGKLPSYKEKMAQAYDFALDKIGMEIMSYQIWVDYINFLKGVEAVGSYAENQRITAVRRVYQRGCVNPMINIEQLWRDYNKYEEGINIHLAKKMIEDRSRDYMNARRVAKEYETVMKGLDRNAPSVPPQNTPQEAQQVDMWKKYIQWEKSNPLRTEDQTLITKRVMFAYEQCLLVLGHHPDIWYEAAQYLEQSSKLLAEKGDMNNAKLFSDEAANIYERAISTLLKKNMLLYFAYADYEESRMKYEKVHSIYNRLLAIEDIDPTLVYIQYMKFARRAEGIKSGRMIFKKAREDARTRHHVYVTAALMEYYCSKDKSVAFKIFELGLKKYGDIPEYVLAYIDYLSHLNEDNNTRVLFERVLTSGSLPPEKSGEIWARFLAFESNIGDLASILKVEKRRFTAFREEYEGKETALLVDRYKFMDLYPCSASELKALGYKDV | soluble
AHHHHHHGSAKRVHLFDWHKEHAKKIEEFAGWEMPIWYSSIKEEHLAVRNAVGVFDVSHMGEILFKGKDALKFLQYTTTNDISKPPAISGTYTLVLNERGAIKDETLVFNMGNNEYLMICDADAFEKLYAWFTYLKKTIEQFTKLDLEIELKTYDIAMFAVQGPKARDLAMDLFGIDINEMWWFQGRWVELDGIKMLLSRSGYTGENGFEVYIEDLNPYHPDEEKRGKPEKALHVWERILEEGQKYGIKPAGLGARDTLRLEAGYTLYGNDTKELQLLSTDIDEVTPLQANLEFAIYWDKDFIGKDALLKQKEKGLGRKLVHFKMLEKSVPREGYKVYANGELIGEVTSGTLSPLLNIGIGIAFVKEEYAKPGVEIEIDIRGTRKKAITVTPPFYDPKKYGLFREE | soluble
AHHHHHHGSDSIIVYVSIHHKNTEKVAKVIAEVLNARLVKPWEIKPEELLKYDLIGFGSGIYYWKHHRALFELINKLPKVEGKKAFIFSTAGLNIPFINHRKLRKVLREKGFEIVGEFSCRGWDTNGWLAEIGGLNKGHPNEKDLENARKFAENLKASI | soluble
MGSDKIHHHHHHMKKRNITEFQVLSEIIRKQPHIKQKEIAENLGITVQAVSEHIRNLVKEGYVKSRGRGEYVVTEKGLRKLKNWISEFKDYLDEINTAVYRYKDIWPAIADEDVKDGETVYLFMKNGLLYASKQPKGEAKAKALYGGKKGEDIAICEIKGIIDVPKGKVIVFRIPPEVVGGSRAVDFNLIKENIDNLDDYVIATMGTVAYVVACKLGLKPDIRFAVPEAIVNACNRGCNVIALITGKMAEKVIKKLDNAKISYTVLDATKENK | not soluble
MSYVAEKKKIANVLSNRYASAELTELWSPEAKILLERQLWIAVMKAQKNLGVDIPTEAISAYEAVIDRIDLDSIAQREKITRHDVKARIEEFNALAGYEHIHKGMTSRDLTENVEQLQIYRSLEMMRNKSVSVAAAIAQHAAQYQSLVMAGRSHNVAAQATTLGKRFASAAEEILVAIDRVEDLLSRYPLRGIKGPMGTAQDMLDLVGGDESKLAALETQIADHLGIARVFDSVGQVYPRSLDFDAVSALVQLGAGPSSLAHTIRLMAGNETVTEGFKEGQVGSSAMPHKMNARSCERVGGLQVILRGYLTMVADLSGQQWNEGDVFCSVIRRVALPDAFFALDGMYETFLTVLAEFGAFPAMIDRELERYLPFLATTRILMAAVRVGVGRETAHEVIKENAVAVALNMRENGGEQDLIDRLAADERLPMTREQLDEALADRHAFIGAAESQVARVVDRVNDLVRRYPAAAQYTPGDIL | not soluble
QQKILENIRGIGTNTMTIFNGNGFGDRRSRHIQNLKISDANTLSKQSYIQSVTPNTSSSGILVVGNKSFTSANLYGIGEQYFDVEGLKLKQGRLLTEDDVDQSNQVVVLDESAKKAIFANENPLGKTVIFNKRPFRVIGVVSDQQLGGFPGNSLNLYSPYSTVLNKITGGSRIGSITVKISDDVNSTVAEKSLTELLKSLHGKKDFFIMNSDTIKQTIENTTGTMK | soluble
MAEITFKGGPVTLVGQEVKVGDQAPDFTVLTNSLEEKSLADMKGKVTIISVIPSIDTGVCDAQTRRFNEEAAKLGDVNVYTISADLPFAQARWCGANGIDKVETLSDHRDMSFGEAFGVYIKELRLLARSVFVLDENGKVVYAEYVSEATNHPNYEKPIEAAKALVK | soluble
MGISTFFLSVTLFTVNRTCDLLTPPPWYPITVKNTHHTSRHRSIFFILSVMIGKGTREDVQLSLSSLFQGVVMIVGQNPQAPSDLGIEGGERAQGQNAHSVHGPGLQTERGGSQLQMVGHPLRELLEHHHHHH | not soluble
EEHLSVMYERLRQELPKLFLQSHDYSLYSLDVEFINEILNIRTKGRTWYILSLTLCRFLAWNYFAHLRLEVLQLTRHPENWTLQARWRLVGLPVHLLFLRFYKRDKDEHYRTYDAYSTFYLNSSGLI | soluble
